Test [1] relates to yeast PEX7. Description: Bead-binding assay: PEX5 variants, PEX7 and PTS2 cargo (Extended Data Fig. 2a,c, 6b). To be noted: 1 µM PEX7–GFP. More on the design: species or system yeast (S. cerevisiae). The text has this:
Cysteine-containing peptides were covalently conjugated to thiol-reactive SulfoLink coupling resin (Thermo Fisher, catalogue number 20401) according to the manufacturer’s instructions. The prepared beads were then mixed with Assay Buffer containing the fluorescently labelled protein as well as additional components indicated in the text, and the resulting bead suspensions were transferred to a 384-well glass-bottomed plate (Cellvis, P384-1.5H-N). GST-fusion proteins were instead mixed with glutathione agarose 4B (Prometheus, 20-543) in Assay Buffer containing the fluorescently labelled protein and additional components indicated in the text; the resulting bead suspensions were then transferred to a glass-bottomed plate as above. The plates were incubated at RT for the durations specified in the text and directly imaged on the spinning-disk confocal platform described earlier for peroxisomal import reactions in Xenopus egg extract. Note that imaging the beads directly in the binding reaction preserves the equilibrium and thereby allows even weak interactions to be detected. Fluorescence was collected through a Nikon ×10 0.45 NA Plan Apo air objective, and images were acquired using the Nikon NIS-Elements software and a 16-bit digitizer without binning. Imaging parameters were configured to maximize the SNR while avoiding saturation. […]

In test [2] the test system is PEX7–FLAG in peroxisome-containing membrane fraction. The test is described as follows: Cell fractionation and FLAG immunoprecipitation / immunoblot of PEX7–FLAG and PEX39–FLAG. It is filed as cell-based, S. cerevisiae. To be noted: PEX13 lacking the KPWE motif; yeast in oleic acid. The procedure: Samples in Laemmli buffer (50 mM Tris–HCl pH 6.8 at RT, 10% vol/vol glycerol, 2% wt/vol SDS, 0.01% bromophenol blue and 700 mM β-mercaptoethanol) were heated for 5 min at 95 °C and then electrophoretically resolved under denaturing conditions on 4–20% TGX precast polyacrylamide gels (Bio-Rad, catalogue number 5671095). For immunoblotting, samples were transferred from the gels to Immun-Blot PVDF membranes (Bio-Rad, catalogue number 13709A06) for 12 h at 25 V and RT in 25 mM Tris, 192 mM glycine and 10% vol/vol methanol. The membranes were blotted in 20 mM Tris–HCl pH 7.5 at RT, 150 mM NaCl, 0.01% vol/vol Tween 20 and 3% wt/vol fat-free milk solids (Apex, catalogue number 20241) using antibodies to the FLAG epitope (Sigma, F7425) and compatible horseradish peroxidase-conjugated secondary antibodies (Cytiva, NA934). The blots were developed by chemiluminescence (Perkin Elmer, NEL103001EA) and scanned on an Amersham ImageQuant 800 imaging system. For staining with Coomassie blue, gels were fixed in 50% vol/vol methanol and 10% vol/vol acetic acid for 30 min at RT, incubated for 30 min in 50% vol/vol methanol, 10% vol/vol acetic acid and 0.001% wt/vol Coomassie brilliant blue R-250 (Bio-Rad), and destained overnight in 10% vol/vol acetic acid before washing into water. The stained gels were digitized on an Epson Perfection V700 scanner using the Epson Scan 2 software. […]
On the technique in general: A western blot detects proteins with antibodies after separation by electrophoresis.

Test [3] has as its system S. cerevisiae cells expressing RFP–FOX2 and POT1–GFP. Description: Peroxisomal protein import assay in S. cerevisiae. Type of test: cell-based. To be noted: yeast expressing PTS1 and PTS2 matrix proteins. The procedure:
Peroxisome biogenesis was induced in S. cerevisiae using an established procedure. Briefly, cells were subcultured twice in YPD medium to mid-log phase (optical density at 600 nm (OD600) ≈ 2), harvested through centrifugation at 2,000g and 30 °C for 10 min, sterilely resuspended to an OD600 of 0.5 in YPGO medium (1% wt/vol yeast extract, 2% wt/vol peptone, 2% vol/vol glycerol, 0.1% wt/vol oleic acid and 0.25% vol/vol Tween 40) and cultured for an additional 16 h at 30 °C. For experiments involving PEX7 riboswitch constructs, cultures in YPGO were supplemented with 250 µM tetracycline (Millipore Sigma, T7660) as described previously.
S. cerevisiae cells expressing RFP–FOX2 and POT1–GFP (MSB-462) were induced to form peroxisomes as described earlier. […]
The cells were imaged on a spinning-disk confocal platform consisting of a Nikon Eclipse Ti inverted microscope, a Yokagawa CSU-X1 spinning-disk confocal scanner, a Hamamatsu ORCA-Fusion BT sCMOS camera and a Prior Proscan II motorized stage. […] Fluorescence was collected using a red-emission ET605/52 m (605 ± 26 nm) or a green-emission ET525/50 m (525 ± 25 nm) single-band bandpass filter (Chroma), respectively, through either a Nikon ×100 1.45 numerical aperture (NA) Plan Apo Lambda or Nikon ×40 0.95 NA Plan Apo Lambda air objective. […]

In test [4] the target is T1, yeast PEX7 fused at the C terminus to GFP (PEX7–GFP) (yeast (S. cerevisiae), UniProt P39108 1-375).
T1 construct: PEX7, yeast (S. cerevisiae); not shown: GST, N-terminal, cleaved; GFP, C-terminal, kept
T1 sequence (looked up): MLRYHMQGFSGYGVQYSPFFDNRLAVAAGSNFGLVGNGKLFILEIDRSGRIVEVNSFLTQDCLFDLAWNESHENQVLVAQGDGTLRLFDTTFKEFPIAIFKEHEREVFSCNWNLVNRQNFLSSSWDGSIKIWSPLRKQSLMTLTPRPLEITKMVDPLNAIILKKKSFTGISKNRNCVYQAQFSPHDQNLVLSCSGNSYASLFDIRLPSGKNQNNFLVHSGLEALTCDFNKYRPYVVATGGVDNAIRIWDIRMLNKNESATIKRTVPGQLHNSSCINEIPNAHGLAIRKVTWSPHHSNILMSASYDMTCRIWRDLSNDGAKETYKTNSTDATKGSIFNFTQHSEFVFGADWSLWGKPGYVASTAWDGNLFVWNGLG
The test is described as follows: bead-binding assay (fluorescence on beads by spinning-disk confocal microscopy); peptide or YG-domain polypeptide conjugated through a cysteine to thiol-reactive beads; PEX7–GFP or GFP alone in Assay Buffer (25 mM HEPES-NaOH pH 7.8, 150 mM NaCl, 1 mM TCEP), RT, 1 h (Fig. 3b); beads imaged directly in the binding reaction. To be noted: both partners purified.

The target of test [5] is T2, yeast PEX7 (yeast (S. cerevisiae), UniProt P39108 1-375).
T2 construct: PEX7, yeast (S. cerevisiae); also called purified recombinant yeast PEX7; not shown: GST, N-terminal, cleaved
T2 sequence (looked up): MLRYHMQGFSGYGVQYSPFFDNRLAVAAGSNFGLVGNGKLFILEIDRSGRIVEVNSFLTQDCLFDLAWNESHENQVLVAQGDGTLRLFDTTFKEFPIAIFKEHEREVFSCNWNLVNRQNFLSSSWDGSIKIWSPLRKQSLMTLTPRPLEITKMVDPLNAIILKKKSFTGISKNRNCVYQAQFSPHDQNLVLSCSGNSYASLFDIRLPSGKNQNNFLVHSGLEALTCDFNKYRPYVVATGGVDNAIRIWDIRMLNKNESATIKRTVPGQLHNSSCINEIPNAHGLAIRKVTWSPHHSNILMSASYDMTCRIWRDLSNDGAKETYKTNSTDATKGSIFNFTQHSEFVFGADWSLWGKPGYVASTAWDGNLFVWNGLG
The test is described as follows: pull-down; competition: glutathione beads with yeast PEX7 and GST-tagged PEX39 ∆APH (each 1 µM), 30 min at 25 °C, then varying concentrations of peptide for 1 h; beads sedimented, supernatant on SDS–PAGE with Coomassie; competitive-binding isotherm, observed binding constants (Kobs). Particulars: both partners purified.

Test [6] deals with T3, GST-tagged yeast PEX7 (GST–PEX7) (yeast (S. cerevisiae), UniProt P39108 1-375).
T3 construct: PEX7, yeast (S. cerevisiae); GST followed by a TEV protease-cleavage site; source: purified recombinant; PEX7 was produced in P. pastoris as a fusion to an N-terminal GST tag; not shown: GST, N-terminal, kept
T3 sequence (looked up): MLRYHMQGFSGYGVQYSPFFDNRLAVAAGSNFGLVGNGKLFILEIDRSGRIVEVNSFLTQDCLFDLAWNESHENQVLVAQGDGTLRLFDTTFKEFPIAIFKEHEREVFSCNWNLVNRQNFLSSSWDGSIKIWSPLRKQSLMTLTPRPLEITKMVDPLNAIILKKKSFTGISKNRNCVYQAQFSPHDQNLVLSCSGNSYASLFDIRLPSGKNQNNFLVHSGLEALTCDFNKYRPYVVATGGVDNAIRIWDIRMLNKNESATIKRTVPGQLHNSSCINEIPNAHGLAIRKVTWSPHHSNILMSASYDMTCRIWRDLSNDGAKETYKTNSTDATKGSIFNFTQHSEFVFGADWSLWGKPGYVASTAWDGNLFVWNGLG
The test is described as follows: bead-binding assay (fluorescence on beads by spinning-disk confocal microscopy); GST-tagged protein on glutathione beads; GFP-fused partner in solution (1 µM each in Extended Data Fig. 9a); 1 h, RT. To be noted: both partners purified.

Test [7] has as its target T1, yeast PEX7 fused at the C terminus to …. Described as above. To be noted: both partners purified.
The target in test [8] is T2, yeast PEX7. Description: pull-down; quantitative: glutathione agarose with 1 µM yeast PEX7 and varying concentrations of GST-tagged PEX39 variants, Assay Buffer, 25 °C, 1 h; beads sedimented, PEX7 left in the supernatant quantified by SDS–PAGE and Coomassie; observed binding constants (Kobs). Particulars: both partners purified.

On to SQRLQSIKDHLVESRS [PTS2 peptide], for which, in test [1], the “Recruitment of PEX7–GFP to PEX5-21-coated beads” value is “could recruit PEX7–GFP only in the presence of the PTS2 peptide”.

B1: PEX7–FLAG: PEX7 with a short SG linker and a FLAG epitope tag at the C terminus (protein, UniProt O00628 1-323, looked up)
Peroxisomal targeting signal …: MSAVCGGAARMLRTPGRHGYAAEFSPYLPGRLACATAQHYGIAGCGTLLILDPDEAGLRLFRSFDWNDGLFDVTWSENNEHVLITCSGDGSLQLWDTAKAAGPLQVYKEHAQEVYSVDWSQTRGEQLVVSGSWDQTVKLWDPTVGKSLCTFRGHESIIYSTIWSPHIPGCFASASGDQTLRIWDVKAAGVRIVIPAHQAEILSCDWCKYNENLLVTGAVDCSLRGWDLRNVRQPVFELLGHTYAIRRVKFSPFHASVLASCSYDFTVRFWNFSKPDSLLETVEHHTEFTCGLDFSLQSPTQVADCSWDETIKIYDPACLTIPA
modifications: C-terminal SG linker and FLAG tag
As to B1, in test [2], the “Enrichment in the membrane fraction” value is given as “considerably enriched in the membrane fraction in the absence of the KPWE motif”. Besides, the “PEX7–FLAG function in protein import” value in test [3] is recorded as “fully functional”.

B2: KPWE peptide (residues 2–20 of S. cerevisiae PEX13 with an additional N-terminal cysteine) (peptide)
peptide: CSSTAVPRPKPWETSASLEE
notes: additional N-terminal cysteine for coupling to thiol-reactive agarose beads; PEX13, S. cerevisiae, residues 2–20; also called peptide comprising the KPWE motif of yeast PEX13; source: synthetic peptide (Genscript)
For the molecule B2, the binding result in test [4] and in test [5] was “binds” throughout.

B3: yeast PEX39 fused at the C terminus to GFP (PEX39–GFP) (natural protein, UniProt P47087 1-132, looked up)
chain: MAAGGELSYEELLDHILNNKPIPNIVEVPNVTLDEGLASTPSLRPRPRPWEGQLQHQSHQGSLDKPNISLDIDQESLEGMTSLTRLSECYDIQSKLQINDSDNDNDDNNNDNNKGDGNDDDNNTVTANPTAR
notes: PEX39, yeast; not shown: GST, N-terminal, cleaved; GFP, C-terminal, kept
Regarding B3, the binding result in test [6] is on record as “binds”.

B4: GST-tagged wild-type yeast PEX39 (GST–PEX39) (natural protein, UniProt P47087 1-132, looked up)
chain: MAAGGELSYEELLDHILNNKPIPNIVEVPNVTLDEGLASTPSLRPRPRPWEGQLQHQSHQGSLDKPNISLDIDQESLEGMTSLTRLSECYDIQSKLQINDSDNDNDDNNNDNNKGDGNDDDNNTVTANPTAR
notes: PEX39, yeast; also called WT; PEX39-coated beads; source: E. coli BL21 Rosetta 2(DE3), purified, GST-tagged; not shown: GST, N-terminal, kept
Turning to B4, the binding result in test [7] and in test [8] was “binds” each time.

Values taken from publication PMC12173945, “Import mechanism of peroxisomal proteins with an N-terminal signal sequence” (Nature Cell Biology, 2025).
